In PMC4838861:

Columns and labels:
[1] = molecular target: yeast V-ATPase c subunit ring (c8c’c”) (S. cerevisiae) (UniProt P25515); experiment: SEC + other: negative-stain EM; purified c-ring (1 mg) on Superdex 200 in buffer with 0.1% DDM (also in UnDM or DM); peak fractions 48 and 58 viewed by negative-stain EM
[2] = molecular target: yeast V-ATPase c subunit ring (c8c’c”) (S. cerevisiae) (UniProt P25515); experiment: negative-stain EM with single-particle class averaging; c-ring (1.5 mg/ml) mixed with DOPC, detergent removed with BioBeads for 7 days (incomplete); 4337 images of dumbbell-shaped particles outside the bilayers sorted into 16 classes (EMAN1.9)

A stoichiometry N [1] of 2 and a stoichiometry N [2] of 2 were found for “yeast V-ATPase c subunit ring (c8c’c”) (from UniProt P25515 1-160; P32842 1-164; P23968 1-213) (complex)” in this work.
